Measured values from the nanobody polyreactivity screen of Harvey et al. (2022).

Test: yeast display, Sf9 membrane polyspecificity reagent, FACS + sequencing; frameworks hold sequencing errors
Summary of the method: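 After 36–48 hours of galactose induction, yeast (Saccharomyces cerevisiae BJ5465) displaying a synthetic nanobody library were stained at 4 °C for 1 hour with 10% biotinylated, detergent-solubilized Sf9 membrane reagent. Streptavidin microbeads enriched the stained cells before FACS sorting into low and high (top ~1%) gates on anti-HA and streptavidin fluorescence. Each clone's polyreactivity label reflects its gate of origin.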

Sequence | polyreactivity (PSR sort gate)
QVQLVESGGGLVQAGGSLRLSCAASGRTFYTYAMGWYRQAPGKERELVAAITYRGGNTYYADSVKGRFTISRDNAKNTVYLEMNSLKPEDTAVYYCAATYKRRSGQSFDYWGQGTQVTVSS | high polyreactivity
QVQLVESGGGLVQAGGSLRLSCAASGSIFSIYAMGWYRQAPGKERELVATIRRDGSTYADSVKGRFTISRDNAKNTVYLQMNSLKPEDTAVYYCNARSYHQPRDYYWGQGTQVNVSS | low polyreactivity
QVQLVESGGGLVQAGGSLRLSCAASGSTFAWNVMGWYRQAPGKERELVAAISGRGGSTYYADSVKGRFTISRDNAKNTVYLQMNSLKPEDTAVYYCNKVYGRSRDVYDYDYWGQGTQVTVSS | high polyreactivity
QVQLQESGGGLVQARGSLRLSCAASGTILYSLGMGWYRQAPGKRREFVASITWGTTTNYAESVKGRFTISRDNAKNTVYPQMNSLKPEDTAVYYCAAPPFGDSSYHYWRQGTQVTVSS | low polyreactivity
QVQLVESGGGLVQAGGSLRLSCAASGIIFWRYAMGWYRQAPGKERELVAAISSSGSTYYADSVKGRFTISRDNAKNTVYLQMNSLKPEDTAVYYCAAYSYPAGEYDYWGQGTQVTVSS | low polyreactivity
QVQLVESGGGLVQAGGSLRLSCAASGGTFDVYTMGWYRQAPGKERELVAAIDNGGSTNYADSVKGRFTISRDNAKHTVYLQMNSLKPEDTAVYYCAADEVYLFWGIAEFIYDYWGQGTQVTVSS | low polyreactivity
QVQLVESGGGLVQAGGSLRLSSAASGSIFVLNAMGWYRQAPGKERELVAAITNVGSTYYADSVKGRFTISRDNAKNTVYLQMNSLKPEDTAVYYCNADPGEVLVGYDYWGQGTQVTVSS | low polyreactivity
QVQLVESGGGLVQAGGSLRLSCAASGFTFKKNAMGWYRQAPGTERELVAAISRSGGITYYADSVKGRFTISRDNAKNTVYLQMNSLKPEDTAVYYCATQTYRTPGYYYWGEGTQVTVSS | high polyreactivity
QVQLVESGGGLVQAGGSLRLSCAASGRTFGRYDMGWYRQAPGKERELVAAITGGVITTYADSVKGRFTISRDNAKNTVYLQMKSLKREDTAVYDCAARYNVFPSPHYYYWGQGTQVTVSS | low polyreactivity
QVQLVESVGGLVQAGGSLRLSCAASGRTFYRYAMGWYRPAPGKERELVAAITASGGSTYYADSVKGRFTISRDNAQNTVYLQMKSLKPEDTAVYYCAKGGKSRYSTWHGDYWGQGTQVTVSS | high polyreactivity
QVQLVESGGGLVQAGGSLRLSCAASGRTVRRYARGWYRQAPGKERELVATIRSGDNTNYADSVKGRFTISRDNAKNTVYLQMNSLKPEDTAVYYCNRSPKSGQVTYLYSVNAHYDYWGQGTQVTVSS | low polyreactivity
QVQLVESGGGLVQAGGSLRLSCAASGRIFTRYAMGWYRQAPGKERELVAAITSGGSTYYADSVKGRFSISRDNAKNTVYLQMNSLKPEDTAVYYCAAVVISSGVRYDYWGQGTQVTVSS | high polyreactivity
QVQLVESGGGLVQAGGSLRLSCAASGSIFRPNAMGWYRQAPGTEREFVASISGRVGSTYYADSVKGRFTISRDNAKNTVYLQMNSLKPEDTAVYYCAADSRGGYKRNYWGQGTQVTVSS | high polyreactivity
QVQLVESGRGLVQAGGSLRLSCAPSGYIFAANAMGWYRQAPGKERELVAAISASGGSTYYADSVKGRFTISRDNAKNTVYLQMNSLKPEDTAVYYCYVVSDSRLYYRYAYDYWGQGTQVTVSS | high polyreactivity
QVQLVESGGGLVQAGGILRLSCAASGITFGRNAMGWYRQAPGKERELVAAITISGGGTYYADSVKGRFTISRDNAKNTVYLQMNSLKPEDTAVYYCAADRSTVWVHYPHAGGSWGHGTQVTVSS | high polyreactivity
QVQLVESGGGLVQAGGSLRLSCAASGSIFYGYAMGWYRQAPGTERELVAALSWSDGITYYADSVKGRFTISRDNGKNTGYLQMKNLKPEDTAVYSCAAEYGQYGYDYWGKGTQVTVSS | high polyreactivity

Sequence | polyreactivity (PSR sort gate)
QVQLVESGGGLVQAGGSLRLSCAASGRIFITNTMGWSRPAPGKERELVAAISRTGGSTYYADSVKGRFTISRDNAKNTVYLQMNSLKPEDTAVYYCAKRYYGSPQLRYYYWGQGTQVTVSS | high polyreactivity
QVQLVESGGGLVQAGGSLRLSCAASGSTFAYYTRGWYRQAPGKERELVAAITSGGRTSYADSVKGRFTISRDNAKNSVYLQMNSLKPEDTAVYYCAKGRKPGYYYWGQGTQVTVSS | high polyreactivity
QVQLVESGGGLVQAGGSLRLSCAASGRIFGYNAMGWYRQAPGKERELVAAITTSGGSTYYADSVKGRFTISRDNAKNTVYLQMNSLKPEVTAVYYCAGDSLQVFYPYASDDYWGHGTQVTVSS | low polyreactivity
QVQLVESGGGLVQAGGSLRLSCAASGNIFKGYAMGWYRQAPGKERELVAAISKSGGSTYYADSVKGRFTISRDNAKNTVYLQMNSLKPDDTAVYYCNTYTYAGYNYWGQGTQVTVSS | high polyreactivity
QVQLVESGGGLVQAGGSLRLICAASGSIFSTNTKGWYRQAPGKERELVAAISISGGSTHYADSVKGRFTISRDNAKNPVYLQMNSLKPEYTAVYYCAADLWYYAYSYDYWGRGTQVTVSS | high polyreactivity
QVQLVESGGGLVQAGGSLRLSCAASGSTLGHNAMGWYRQAPGKERELVAAITSSGGRTYYADSVKGRFTISRDNAKNTVYLQMYSLKPEDTAVYYCAAKLHGYYDVFGQSHRTYDYWGQGTQVTVSS | high polyreactivity
QVQLVESGGGLVQAGGSLRLSCAASGLTLSYNAMGWYRPAPGKERELVAAIRSGGSTNYADAVKGRFTISRDNANNTVYLQMNSLKPEDTAVYYCAARCRYLPYRDGRYQSGYEYWGQGTQVTVSS | high polyreactivity
QVQLEESGGRLVQAGGSLRLSCAASGSTFSNNAMGWYRQAPGKERELVAAIRTSGGRTYYADSVKGRFTISRDNAKHTVYLQMNSLKPEDTAVYYCAKRWVYRYGYEYWGQGTQVTVSS | high polyreactivity
QVQLVESGGGLVQAGGSLRLSCAASGFTFPGYTMGWYRQAPGKERELVAAITWSGGSTYYADSVKGRFTISRDTAKNTVYLQMNSLKPEDTAVYYCAAKYGAYYGNRDYWGQGTQVTVSS | high polyreactivity
QFQLVESGGGLVQAGGSLRLSCAASGFIFKPYTMGWYRQAPGKERELVATITFSGGSTYYADSVKGRFTNSRDNAKNTVYLQMNSLKPEDTAVYYCAAPRFYRGYAIYDYWGQGTQVTVSS | low polyreactivity
QVQVVESGGGLVQAGGSLRLSCAASGFIFYVYAMGWYTQAPGKERELVAAISKRSGGTRYADSVKGRFTISRDNAKNTVYLQMNSLKPEDTAVYYCNKYGQVPGYFSLDYWGQGTQVTVSS | high polyreactivity
QVQLVESGGGLVQAGGSLRLSCAASGLTFGYNAMGWYRQAPGNERELVATISYSGGRTYYADSVKGRFTISRDNAKTTVYLQMNSLKPEDTAVYDCATRQRHWSGEFDYWGQGTQVTVSS | high polyreactivity
QVQLVESGGGLVQAGGSLRLSCAASGRIFTSNTMGWYRQAPGKESELVAAITCSGGSMYYADSVKGRFTISRDNAKNTVYLQMNSLKPEDTEVYDCAADTLGYHYWYDYWGQGTQVTVSS | low polyreactivity
QVQHVESGGGLVQAGGSLRLSCAASGFIFGRYTMGWYRQAPGKERELVAAISRGGITNYADSVKGRFTISRDNAKNTVYLQMNSLKPEDTAVYYCNAVGVRPGFKGFDYWGQGTQVTVSS | high polyreactivity
QVQLVESGGGLVQEGGSLRLSCAASGRNFDVNAMGWYRQAPGKERELDAAISSGGNTKYSDSVKGRFTISRDKSKNTVYLQMNSLKPVDSAVYYCKADGKAGGDYDYWVQGTQVTVSS | low polyreactivity
QVQLVESGGGLVQAGGSLRLSCAASGRTFNLYAMGWYRQAPGKEREFVAAISYSGDSTYYADSVKGRFTISRDNAKNTVYLQMNSLKPEDTAVYYCNADRLQVTRTYDYWGQGTQVTVSS | low polyreactivity
